The test system of this data set is T1, [KGHK-Cu]+ copper(II) complex of KGHK.
T1 sequence: KGHK

With “recombinant isoform of human Angiotensin Converting Enzyme (rhACE) corresponding to the ectodomain somatic ACE”, the “catalytic rate constant kobs for enzyme deactivation under oxidative conditions (ascorbate, dioxygen)” value is “kobs˜2.86×10^-2 min^-1 for enzyme deactivation”.

For the origin of these results see patent US8445431.
